Measurements taken from paper PMC10195879.
Where two headings read alike, the source gives them in different places.

Legend:
[1] = molecular target: GMPCPP-stabilized microtubules (bovine brain tubulin, TAMRA-labeled) (bovine) (UniProt Q6B856); experiment: single-molecule TIRF microscopy
[2] = molecular target: GMPCPP-stabilized microtubules (bovine brain tubulin, TAMRA-labeled) (bovine) (UniProt Q6B856); experiment: single-molecule TIRF microscopy; remark: listed apart in the source

Chain of His-EGFP-L-TOG2-S (minimal construct of CLASP2α: short linker region, TOG2 domain and serine-arginine-rich region) (domain or fragment) (O75122 whole entry, the tested form may be a part): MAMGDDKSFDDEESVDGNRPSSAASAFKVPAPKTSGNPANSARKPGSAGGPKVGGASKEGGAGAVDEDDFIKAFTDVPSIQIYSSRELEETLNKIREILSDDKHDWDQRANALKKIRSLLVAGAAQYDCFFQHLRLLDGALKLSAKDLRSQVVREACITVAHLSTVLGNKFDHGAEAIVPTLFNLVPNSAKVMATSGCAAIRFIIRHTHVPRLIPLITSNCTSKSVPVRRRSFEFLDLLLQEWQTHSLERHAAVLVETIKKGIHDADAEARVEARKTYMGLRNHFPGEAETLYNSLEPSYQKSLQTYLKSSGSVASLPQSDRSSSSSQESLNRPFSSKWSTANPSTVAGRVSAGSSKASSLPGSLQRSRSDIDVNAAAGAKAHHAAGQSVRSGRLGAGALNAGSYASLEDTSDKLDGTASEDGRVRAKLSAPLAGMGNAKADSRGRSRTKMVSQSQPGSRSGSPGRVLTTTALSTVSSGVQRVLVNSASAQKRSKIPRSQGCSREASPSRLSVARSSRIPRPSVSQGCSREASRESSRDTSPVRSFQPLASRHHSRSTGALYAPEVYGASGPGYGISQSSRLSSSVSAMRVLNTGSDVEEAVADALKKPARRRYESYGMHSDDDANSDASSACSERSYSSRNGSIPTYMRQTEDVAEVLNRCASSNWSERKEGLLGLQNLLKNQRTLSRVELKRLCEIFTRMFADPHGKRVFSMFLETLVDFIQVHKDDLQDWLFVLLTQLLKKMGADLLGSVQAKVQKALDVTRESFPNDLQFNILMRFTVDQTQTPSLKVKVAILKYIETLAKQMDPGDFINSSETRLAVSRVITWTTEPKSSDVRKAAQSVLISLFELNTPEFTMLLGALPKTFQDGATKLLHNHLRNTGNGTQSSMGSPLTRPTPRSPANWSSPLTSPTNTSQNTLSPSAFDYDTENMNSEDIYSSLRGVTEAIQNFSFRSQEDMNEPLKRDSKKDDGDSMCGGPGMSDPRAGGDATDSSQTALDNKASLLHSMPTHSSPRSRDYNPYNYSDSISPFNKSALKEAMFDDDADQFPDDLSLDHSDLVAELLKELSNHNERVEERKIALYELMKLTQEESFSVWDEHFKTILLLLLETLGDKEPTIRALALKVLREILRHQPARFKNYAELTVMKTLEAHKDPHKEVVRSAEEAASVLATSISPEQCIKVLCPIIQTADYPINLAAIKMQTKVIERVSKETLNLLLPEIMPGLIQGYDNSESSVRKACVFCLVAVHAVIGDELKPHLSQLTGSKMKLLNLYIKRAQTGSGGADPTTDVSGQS

## His-EGFP-L-TOG2-S (minimal construct of CLASP2α: short linker region, TOG2 domain and serine-arginine-rich region) (domain or fragment)
[1]
  mean dwell time on microtubule ends: 3.8 s
[2]
  mean dwell time on microtubule ends: 0.53 s
